Data reported in paper PMC6381110, “Allosteric enhancement of ORP1-mediated cholesterol transport by PI(4,5)P2/PI(3,4)P2” (Nature Communications, 2019).
Where “and” joins values, the source holds several entries; their conditions need not be identical. Identical values can stand only once.

How the values were obtained:
[1] = target: the molecule itself; assay: SEC; Superdex-200 10/300, 10 mM Tris-HCl pH 8.0, 150 mM NaCl, 2 mM DTT; ORP1-ORD 5 uM alone or with cholesterol (free or in liposomes, 4:1); cholesterol shifts the protein towards monomer
[2] = target: the molecule itself; assay: crystal structure; ORP1-ORD (524-950) with cholesterol, hanging drop 18 °C, 0.1 M NaAc pH 4.6, 2.0 M Na formate; oligomer by crystal symmetry
[3] = target: the molecule itself; assay: crystal structure; ORP1-ORD (534-950) with cholesterol, hanging drop 18 °C, 0.1 M Na cacodylate pH 6.2, 1.2 M Na citrate; oligomer by crystal symmetry

B1: ORP1S (ORP1-ORD, residues 514-950) (natural protein, human, UniProt Q9BXW6 514-950, looked up)
chain: MSEEKDCGGGDALSNGIKKHRTSLPSPMFSRNDFSIWSILRKCIGMELSKITMPVIFNEPLSFLQRLTEYMEHTYLIHKASSLSDPVERMQCVAAFAVSAVASQWERTGKPFNPLLGETYELVRDDLGFRLISEQVSHHPPISAFHAEGLNNDFIFHGSIYPKLKFWGKSVEAEPKGTITLELLEHNEAYTWTNPTCCVHNIIVGKLWIEQYGNVEIINHKTGDKCVLNFKPCGLFGKELHKVEGYIQDKSKKKLCALYGKWTECLYSVDPATFDAYKKNDKKNTEEKKNSKQMSTSEELDEMPVPDSESVFIIPGSVLLWRIAPRPPNSAQMYNFTSFAMVLNEVDKDMESVIPKTDCRLRPDIRAMENGEIDQASEEKKRLEEKQRAARKNRSKSEEDWKTRWFHQGPNPYNGAQDWIYSGSYWDRNYFNLPDIY
notes: ORP1S, the short isoform encoded by human OSBPL1A, residues 514-950 on the numbering of the long isoform ORP1L (1-950); holds only the ORD; pET21b construct; In gel filtration it is a mixture of monomers, dimers and trimers; also called short isoform of OSBPL1A; source: E. coli Rosetta(DE3), purified (Ni-NTA, ion exchange, gel filtration)
[1]
  stoichiometry N: 2 and 3

B2: ORP1-ORD (residues 524-950) (domain or fragment, human, UniProt Q9BXW6 524-950, looked up)
chain: DALSNGIKKHRTSLPSPMFSRNDFSIWSILRKCIGMELSKITMPVIFNEPLSFLQRLTEYMEHTYLIHKASSLSDPVERMQCVAAFAVSAVASQWERTGKPFNPLLGETYELVRDDLGFRLISEQVSHHPPISAFHAEGLNNDFIFHGSIYPKLKFWGKSVEAEPKGTITLELLEHNEAYTWTNPTCCVHNIIVGKLWIEQYGNVEIINHKTGDKCVLNFKPCGLFGKELHKVEGYIQDKSKKKLCALYGKWTECLYSVDPATFDAYKKNDKKNTEEKKNSKQMSTSEELDEMPVPDSESVFIIPGSVLLWRIAPRPPNSAQMYNFTSFAMVLNEVDKDMESVIPKTDCRLRPDIRAMENGEIDQASEEKKRLEEKQRAARKNRSKSEEDWKTRWFHQGPNPYNGAQDWIYSGSYWDRNYFNLPDIY
notes: OSBP-related domain (ORD) of human ORP1, residues 524-950 on ORP1L (1-950) numbering; Crystallised with cholesterol and with PI(4,5)P2; also called ORP1-ORD (524-950); source: E. coli Rosetta(DE3), purified (Ni-NTA, ion exchange, gel filtration)
[2]
  stoichiometry N: 3

B3: ORP1-ORD (residues 534-950) (domain or fragment, human, UniProt Q9BXW6 534-950, looked up)
chain: RTSLPSPMFSRNDFSIWSILRKCIGMELSKITMPVIFNEPLSFLQRLTEYMEHTYLIHKASSLSDPVERMQCVAAFAVSAVASQWERTGKPFNPLLGETYELVRDDLGFRLISEQVSHHPPISAFHAEGLNNDFIFHGSIYPKLKFWGKSVEAEPKGTITLELLEHNEAYTWTNPTCCVHNIIVGKLWIEQYGNVEIINHKTGDKCVLNFKPCGLFGKELHKVEGYIQDKSKKKLCALYGKWTECLYSVDPATFDAYKKNDKKNTEEKKNSKQMSTSEELDEMPVPDSESVFIIPGSVLLWRIAPRPPNSAQMYNFTSFAMVLNEVDKDMESVIPKTDCRLRPDIRAMENGEIDQASEEKKRLEEKQRAARKNRSKSEEDWKTRWFHQGPNPYNGAQDWIYSGSYWDRNYFNLPDIY
notes: OSBP-related domain (ORD) of human ORP1, residues 534-950 on ORP1L (1-950) numbering; Crystallised with cholesterol from Na cacodylate; also called ORP1-ORD (534-950); ORP1S lacking the N-terminal 20 amino acids; source: E. coli Rosetta(DE3), purified (Ni-NTA, ion exchange, gel filtration)
[3]
  stoichiometry N: 2
